Test results as given in patent publication US20180155451A1 (published 2018).

What was measured:
FcγRIIa R [1] = target: T1, FcγRIIa R (human, UniProt P12318 34-217); test: SPR (Biacore), antibody captured via antigen peptide, FcγRIIa R as analyte; homodimerized antibody
T1 construct: extracellular domain; Soluble extracellular domain with C-terminal His tag, expressed in FreeStyle293 cells; also called FcgRIIa R; FcγRIIa type R; not shown: His tag attached to the C terminus
T1 sequence (looked up): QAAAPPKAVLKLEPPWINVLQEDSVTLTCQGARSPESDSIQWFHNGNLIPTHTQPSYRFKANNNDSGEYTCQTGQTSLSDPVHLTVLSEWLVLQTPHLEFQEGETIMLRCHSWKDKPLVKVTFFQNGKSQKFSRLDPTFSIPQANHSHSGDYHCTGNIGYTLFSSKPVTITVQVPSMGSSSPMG
Experimental: Analysis of interaction between objective antibody and the FcγR was carried out using Biacore T100 (GE Healthcare). HBS-EP+ (GE Healthcare) was used as the running buffer, and the measurement temperature was set to 25° C. Chips produced by immobilizing the antigen peptide by the amine coupling method to a Series S Sencor Chip CM5 (GE Healthcare), or alternatively, chips produced by allowing preliminarily biotinylated antigen peptides to interact with and immobilize onto a Series S Sensor Chip SA (certified) (GE Healthcare) were used. Antibodies of interest were captured onto an antigen peptide-immobilized chip, and allowed to interact to each FcγR diluted with running buffer. To regenerate and repeatedly use the chip, the antibodies captured on the chip were washed off by reacting 10 mM glycine-HCl, pH 1.5.

FcγRIIb = target: T2, FcγRIIb (human, UniProt P31994 43-217); test: SPR (Biacore), captured antibody, FcγR analyte; binding relative to GpH7-A5/GpH7-B3/GpL16-k0 = 100
T2 construct: extracellular domain; also called FcgRIIb
T2 sequence (looked up): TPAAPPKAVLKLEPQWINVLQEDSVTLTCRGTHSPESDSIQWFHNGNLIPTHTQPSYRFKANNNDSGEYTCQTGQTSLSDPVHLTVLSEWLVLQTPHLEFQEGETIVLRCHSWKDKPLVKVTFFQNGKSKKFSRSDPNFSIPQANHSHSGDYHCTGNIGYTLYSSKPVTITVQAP

FcγRIIa R [2] = target: T3, FcγRIIa R (human, UniProt P12318 34-217); test: as above
T3 construct: extracellular domain; also called FcgRIIa R; FcγRIIa type R
T3 sequence (looked up): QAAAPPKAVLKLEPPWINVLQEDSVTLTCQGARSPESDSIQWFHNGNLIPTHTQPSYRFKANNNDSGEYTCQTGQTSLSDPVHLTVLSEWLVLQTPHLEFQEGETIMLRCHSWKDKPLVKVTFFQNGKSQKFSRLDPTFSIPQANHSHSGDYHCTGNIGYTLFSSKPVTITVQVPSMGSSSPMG

FcγRIIa R [3] = target: T3, FcγRIIa R; test: He/Con_2aR divided by He/Con_2b (FcγRIIa R over FcγRIIb); SPR (Biacore)

Row | Binder | Ho/Con_2aR (FcγRIIa R [1]) | He/Con_2b (IIb binding) (FcγRIIb) [control=100] | He/Con_2aR (IIaR binding) (FcγRIIa R [2]) [control=100] | IIaR/IIb (He_2aR/2b) (FcγRIIa R [3]) [ratio]
1 | GpH7-B3 variant H268_13S/GpL16-k0 (antibody, human IgG1, kappa, homodimerized; mutation in both H chains; also called Ho Ab) heavy: not shown light: DIVMTQSPLSLPVTPGEPASISCQASESLVHSNRNTYLHWYLQKPGQSPQLLIYKVSNRFSGVPDRFSGSGSGTDFTLKISRVEAEDVGVYYCSQNTHVPPTFGQGTKVEIERTVAAPSVFIFPPSDEQLKSGTASVVCLLNNFYPREAKVQWKVDNALQSGNSQESVTEQDSKDSTYSLSSTLTLSKADYEKHKVYACEVTHQGLSSPVTKSFNRGEC | 135 % of control (GpH7-B3/GpL16-k0 = 100) |  |  | 
2 | GpH7-B3 variant I332_10E/GpL16-k0 (antibody, human IgG1, kappa, homodimerized; mutation in both H chains; also called Ho Ab; GpH7-B3-22-10E/GpL16-k0) heavy: not shown light: DIVMTQSPLSLPVTPGEPASISCQASESLVHSNRNTYLHWYLQKPGQSPQLLIYKVSNRFSGVPDRFSGSGSGTDFTLKISRVEAEDVGVYYCSQNTHVPPTFGQGTKVEIERTVAAPSVFIFPPSDEQLKSGTASVVCLLNNFYPREAKVQWKVDNALQSGNSQESVTEQDSKDSTYSLSSTLTLSKADYEKHKVYACEVTHQGLSSPVTKSFNRGEC | 123 % of control (GpH7-B3/GpL16-k0 = 100) |  |  | 
3 | GpH7-B3 variant I332_15Y/GpL16-k0 (antibody, human IgG1, kappa, homodimerized; mutation in both H chains; also called Ho Ab) heavy: not shown light: DIVMTQSPLSLPVTPGEPASISCQASESLVHSNRNTYLHWYLQKPGQSPQLLIYKVSNRFSGVPDRFSGSGSGTDFTLKISRVEAEDVGVYYCSQNTHVPPTFGQGTKVEIERTVAAPSVFIFPPSDEQLKSGTASVVCLLNNFYPREAKVQWKVDNALQSGNSQESVTEQDSKDSTYSLSSTLTLSKADYEKHKVYACEVTHQGLSSPVTKSFNRGEC | 111 % of control (GpH7-B3/GpL16-k0 = 100) |  |  | 
4 | GpH7-A5/GpH7-B3 variant Y300_18N/GpL16-k0 (antibody, human IgG1, kappa, He Ab; IgG1; mutation in one H chain only) heavy 1: not shown heavy 2: not shown light: DIVMTQSPLSLPVTPGEPASISCQASESLVHSNRNTYLHWYLQKPGQSPQLLIYKVSNRFSGVPDRFSGSGSGTDFTLKISRVEAEDVGVYYCSQNTHVPPTFGQGTKVEIERTVAAPSVFIFPPSDEQLKSGTASVVCLLNNFYPREAKVQWKVDNALQSGNSQESVTEQDSKDSTYSLSSTLTLSKADYEKHKVYACEVTHQGLSSPVTKSFNRGEC |  | 82.7 | 100 | 1.21
5 | GpH7-B3 variant K326_06M/GpL16-k0 (antibody, human IgG1, kappa, homodimerized; mutation in both H chains; also called Ho Ab) heavy: not shown light: DIVMTQSPLSLPVTPGEPASISCQASESLVHSNRNTYLHWYLQKPGQSPQLLIYKVSNRFSGVPDRFSGSGSGTDFTLKISRVEAEDVGVYYCSQNTHVPPTFGQGTKVEIERTVAAPSVFIFPPSDEQLKSGTASVVCLLNNFYPREAKVQWKVDNALQSGNSQESVTEQDSKDSTYSLSSTLTLSKADYEKHKVYACEVTHQGLSSPVTKSFNRGEC | 143 % of control (GpH7-B3/GpL16-k0 = 100) |  |  | 
6 | GpH7-B3 variant H268_09D/GpL16-k0 (antibody, human IgG1, kappa, homodimerized; mutation in both H chains; also called Ho Ab) heavy: not shown light: DIVMTQSPLSLPVTPGEPASISCQASESLVHSNRNTYLHWYLQKPGQSPQLLIYKVSNRFSGVPDRFSGSGSGTDFTLKISRVEAEDVGVYYCSQNTHVPPTFGQGTKVEIERTVAAPSVFIFPPSDEQLKSGTASVVCLLNNFYPREAKVQWKVDNALQSGNSQESVTEQDSKDSTYSLSSTLTLSKADYEKHKVYACEVTHQGLSSPVTKSFNRGEC | 157 % of control (GpH7-B3/GpL16-k0 = 100) |  |  | 
7 | GpH7-A5/GpH7-B3 variant Y300_05P/GpL16-k0 (antibody, human IgG1, kappa, He Ab; IgG1; mutation in one H chain only) heavy 1: not shown heavy 2: not shown light: DIVMTQSPLSLPVTPGEPASISCQASESLVHSNRNTYLHWYLQKPGQSPQLLIYKVSNRFSGVPDRFSGSGSGTDFTLKISRVEAEDVGVYYCSQNTHVPPTFGQGTKVEIERTVAAPSVFIFPPSDEQLKSGTASVVCLLNNFYPREAKVQWKVDNALQSGNSQESVTEQDSKDSTYSLSSTLTLSKADYEKHKVYACEVTHQGLSSPVTKSFNRGEC |  | 7.3 | 10.8 | 1.47
8 | GpH7-A5/GpH7-B3 variant Y300_12R/GpL16-k0 (antibody, human IgG1, kappa, He Ab; IgG1; mutation in one H chain only) heavy 1: not shown heavy 2: not shown light: DIVMTQSPLSLPVTPGEPASISCQASESLVHSNRNTYLHWYLQKPGQSPQLLIYKVSNRFSGVPDRFSGSGSGTDFTLKISRVEAEDVGVYYCSQNTHVPPTFGQGTKVEIERTVAAPSVFIFPPSDEQLKSGTASVVCLLNNFYPREAKVQWKVDNALQSGNSQESVTEQDSKDSTYSLSSTLTLSKADYEKHKVYACEVTHQGLSSPVTKSFNRGEC |  | 41.2 | 55.1 | 1.34
9 | GpH7-B3 variant H268_18N/GpL16-k0 (antibody, human IgG1, kappa, homodimerized; mutation in both H chains; also called Ho Ab) heavy: not shown light: DIVMTQSPLSLPVTPGEPASISCQASESLVHSNRNTYLHWYLQKPGQSPQLLIYKVSNRFSGVPDRFSGSGSGTDFTLKISRVEAEDVGVYYCSQNTHVPPTFGQGTKVEIERTVAAPSVFIFPPSDEQLKSGTASVVCLLNNFYPREAKVQWKVDNALQSGNSQESVTEQDSKDSTYSLSSTLTLSKADYEKHKVYACEVTHQGLSSPVTKSFNRGEC | 134 % of control (GpH7-B3/GpL16-k0 = 100) |  |  | 
